These results are taken from patent publication US20230302100A1 (published 2023).

Test [1] deals with rabbit anti-BSA (ACRIS, #R1048P). As to the kind of experiment: cell-based or functional assay.
A further test addresses denosumab (XGEVA). Nature of the test: cell-based or functional assay.

B1: pCART197 (enzyme)
chain: MDDYQRNATEAYAKEVPHQITSVWTKGVTPLTPEQFRYNNEDVIHAPYLANQGWYDITKAFDGKDNLLCGAATAGNMLHWWFDQNKTEIEAYLSKHPEKQKIIFRNQELFDLKEAIRTKDSQTNSQLFEYFRDKAFPYLSARQLGVMPDLVLDMFINGYYLNVFKTQSTDVKRPYQDKDKRGGIFDAVFTRGNQTTLLTARHDLKNKGLNDISTIIKEELTKGRALALSHTYANVSISHVINLWGADFNAEGNLEAIYVTDSDANASIGMKKYFVGINKHGHVAISAKKIEGENIGAQVLGLFTLSSGKDIWQKLNGGGHHHHHH
For the molecule B1, the “pCART124 ratio (fold change in potency relative to IdeS), ELISA-based potency assay” value in test [1] is 8 fold over pCART124.

B2: pCART201 (enzyme)
chain: MSVWTKGVTPLTPEQFRYNNEDVIHAPYLAHQGWYDITKAFDGKDNLLCGAATAGNMLHWWFDQNKTEIEAYLSKHPEKQKIIFNNQELFDLKAAIDTKDSQTNSQLFNYFRDKAFPNLSARQLGVMPDLVLDMFINGYYLNVFKTQSTDVNRPYQDKDKRGGIFDAVFTRGDQTTLLTARHDLKNKGLNDISTIIKQELTEGRALALSHTYANVSISHVINLWGADFNAEGNLEAIYVTDSDANASIGMKKYFVGINAHGHVAISAKKIEGENIGAQVLGLFTLSSGKDIWQKLSGGGHHHHHH
Consider B2, for which, in test [1], the “pCART124 ratio (fold change in potency relative to IdeS), ELISA-based potency assay” value came out at 8 fold over pCART124.

B3: pCART203 (enzyme)
chain: MDDYQRNATEAYAKEVPHQITSVWTKGVTPPEQFTQGEDVIHAPYLAHQGWYDITKAFDGKDNLLCGAATAGNMLHWWFDQNKTEIEAYLSKHPEKQKIIFNNQELFDLKAAIDTKDSQTNSQLFNYFRDKAFPNLSARQLGVMPDLVLDMFINGYYLNVFKTQSTDVNRPYQDKDKRGGIFDAVFTRGDQTTLLTARHDLKNKGLNDISTIIKQELTEGRALALSHTYANVSISHVINLWGADFNAEGNLEAIYVTDSDANASIGMKKYFVGINAHGHVAISAKKIEGENIGAQVLGLFTLSSGKDIWQKLSGGGHHHHHH
Take B3: the “IgG2 (denosumab) cleavage, SDS-PAGE titration: fold efficacy over IdeZ” value with denosumab (XGEVA) was ~3 fold vs pCART144. Moreover, the “pCART124 ratio (fold change in potency relative to IdeS), ELISA-based potency assay” value in test [1] is ~3.5 fold over IdeS.
